Reference: patent US20240041976A1, “COMPOSITION AND USE” (priority 2020, published 2024)

What was measured:
[1] = tested on: S. aureus ATTC 10832; test: Planktonic cell growth inhibition assay (MIC50, liquid culture); assay type: cell-based, Staphylococcus aureus
Experimental: (§1) Growth inhibition assays were performed in 96-well microtiter plates as described previously (Chi and Holo, 2018, supra). Briefly, 135 μl of TSB were dispensed in each well of a microtiter plate (according to the number of bacterial strains tested) except in the wells of the first row. The antimicrobials were diluted in TSB to working concentrations in a final volume of 285 μl and dispensed in the wells of the first row. The working concentrations were 100 μg/μl for garvicin KS, 10 μg/μl for micrococcin P1 and 1 mg/ml for penicillin G. From the first row, 150 μl of the antimicrobials were then serially diluted (two-fold dilutions) in a sequential fashion until the last row of the plate. Finally, 15 μl of a fresh O/N culture of each strain were added in the appropriate wells to reach a final volume of 150 μl in each well. The plates were then incubated at 37° C. for 24 h. The growth inhibition was expressed as minimum inhibitory concentration (MIC50), which refers to the minimum concentration of the antimicrobial needed to reduce at least 50% of the microbial growth compared to the untreated control. The MIC50 was assessed by optical density readings at 600 nm (O.D.600).
(§2) Synergistic interactions between antimicrobials were determined using the fractional inhibition concentration (FIC). The FIC values were calculated as follows: the sum of the FIC =FICa+FICb+FICc, where the FICa means MIC of A in combination/MIC of A alone, FICb means MIC of B in combination/MIC of B, and FICc means MIC of C in combination/MIC of C alone. Effects were considered as synergistic if FIC was ≤0.5 for two components mixture and ≤0.75 for three components mixture.

[2] = tested on: S. aureus ATTC 29213; test: as above; assay type: cell-based, Staphylococcus aureus
Experimental: as §1, §2

[3] = tested on: S. aureus ATTC 33591; test: as above; assay type: cell-based, Staphylococcus aureus
Experimental: as §1, §2

[4] = tested on: S. aureus Newman; test: as above; assay type: cell-based, Staphylococcus aureus
Experimental: as §1, §2

[5] = tested on: S. aureus USA 300; test: as above; assay type: cell-based, Staphylococcus aureus
Experimental: as §1, §2

[6] = tested on: S.a. 3255; test: as above; assay type: cell-based, Staphylococcus aureus
Experimental: as §1, §2

[7] = tested on: S. haemolyticus 4068; test: microbe, parasite or virus in culture; details: 4068; for MIC: individual component
Experimental: as §1, §2
(§3) Bacteriocins and antimicrobial assays. […] These bacteriocins were all solubilized in 0.1% (vol/vol) trifluoracetic acid (TFA; Sigma-Aldrich). […] Cell growth inhibition assays and antimicrobial synergy determination was performed in line with Example 1.
(§4) To investigate whether there was synergy between the three bacteriocins (K1-EJ, GarKS and MP1), a checkboard antimicrobial assay was performed. The selected strains were treated for 5, 24 and 48 h with a range of concentrations of K1-EJ, GarKS and MP1 alone or in different combinations.

[8] = tested on: S. haemolyticus 4069; test: microbe, parasite or virus in culture; details: 4069; for MIC: individual component
Experimental: as §1, §2, §3, §4

[9] = tested on: S. haemolyticus 4071; test: microbe, parasite or virus in culture; details: 4071; for MIC: individual component
Experimental: as §1, §2, §3, §4

[10] = tested on: S. haemolyticus 4072; test: microbe, parasite or virus in culture; details: 4072; for MIC: individual component
Experimental: as §1, §2, §3, §4

[11] = tested on: S. haemolyticus 4073; test: microbe, parasite or virus in culture; details: 4073; for MIC: individual component
Experimental: as §1, §2, §3, §4

[12] = garvicin KS + micrococcin P1 + penicillin G

B1: Garvicin KS: three-peptide leaderless bacteriocin (GarA, GarB, GarC; SEQ ID NO:6-8), peptides synthesized (peptide, listed as Lactococcus garvieae)
chain 1: MGAIIKAGAKIVGKGVLGGGASWLGWNVGEKIWK
chain 2: MGAIIKAGAKIIGKGLLGGAAGGATYGGLKKIFG
chain 3: MGAIIKAGAKIVGKGALTGGGVWLAEKLFGGK
MIC50 of the component in combination ([1]; garvicin KS + micrococcin P1): 6.3 mg/L
MIC50 of the component in combination [1, 12]: <0.78 mg/L
MIC50 of the component in combination ([1]; garvicin KS + penicillin G): <0.78 mg/L
MIC50 ([1]; individual component): 25 mg/L
MIC50 of the component in combination ([2]; garvicin KS + micrococcin P1): 13 mg/L
MIC50 of the component in combination [2, 12]: 3.1 mg/L
MIC50 of the component in combination ([2]; garvicin KS + penicillin G): 13 mg/L
MIC50 ([2]; individual component): 25 mg/L
MIC50 of the component in combination ([3]; garvicin KS + micrococcin P1): 13 mg/L
MIC50 of the component in combination [3, 12]: 13 mg/L
MIC50 of the component in combination ([3]; garvicin KS + penicillin G): 50 mg/L
MIC50 ([3]; individual component): 50 mg/L
MIC50 of the component in combination ([4]; garvicin KS + micrococcin P1): 3.13 mg/L
MIC50 of the component in combination [4, 12]: <0.78 mg/L
MIC50 of the component in combination ([4]; garvicin KS + penicillin G): <0.78 mg/L
MIC50 ([4]; individual component): 25 mg/L
MIC50 of the component in combination ([5]; garvicin KS + micrococcin P1): 1.56 mg/L
MIC50 of the component in combination [5, 12]: 6.3 mg/L
MIC50 of the component in combination ([5]; garvicin KS + penicillin G): 25 mg/L
MIC50 ([5]; individual component): 25 mg/L
MIC50 of the component in combination ([6]; garvicin KS + micrococcin P1): 0.013 mg/mL
MIC50 of the component in combination [6, 12]: <7.8 × 10^−4. mg/ml
MIC50 of the component in combination ([6]; garvicin KS + penicillin G): <0.00078 mg/mL
MIC50 ([6]; individual component): 25 mg/L
MIC of the component in combination ([7]; 5 h, GarKS + MP1): 0.2 mg/L
MIC of the component in combination ([7]; 5 h, K1-EJ + GarKS): 0.83 mg/L
MIC of the component in combination ([7]; 5 h, K1-EJ + GarKS + MP1): 0.32 mg/L
MIC ([7]; 5 h): 6.5 mg/L
MIC of the component in combination ([7]; 24 h, GarKS + MP1): 0.32 mg/L
MIC of the component in combination ([7]; 24 h, K1-EJ + GarKS): 3.1 mg/L
MIC of the component in combination ([7]; 24 h, K1-EJ + GarKS + MP1): 0.78 mg/L
MIC ([7]; 24 h): 24 mg/L
MIC of the component in combination ([7]; 48 h, GarKS + MP1): 0.68 mg/L
MIC of the component in combination ([7]; 48 h, K1-EJ + GarKS): 6 mg/L
MIC of the component in combination ([7]; 48 h, K1-EJ + GarKS + MP1): 2.8 mg/L
MIC ([7]; 48 h): 25 mg/L
MIC of the component in combination ([8]; 5 h, GarKS + MP1): 1.6 mg/L
MIC of the component in combination ([8]; 5 h, K1-EJ + GarKS): 1.4 mg/L
MIC of the component in combination ([8]; 5 h, K1-EJ + GarKS + MP1): 0.68 mg/L
MIC ([8]; 5 h): 3.3 mg/L
MIC of the component in combination ([8]; 24 h, GarKS + MP1): 25 mg/L
MIC of the component in combination ([8]; 24 h, K1-EJ + GarKS): 6 mg/L
MIC of the component in combination ([8]; 24 h, K1-EJ + GarKS + MP1): 3.3 mg/L
MIC ([8]; 24 h): 13 mg/L
MIC of the component in combination ([8]; 48 h, GarKS + MP1): 50 mg/L
MIC of the component in combination ([8]; 48 h, K1-EJ + GarKS): 6.5 mg/L
MIC of the component in combination ([8]; 48 h, K1-EJ + GarKS + MP1): 5.8 mg/L
MIC ([8]; 48 h): 26 mg/L
MIC of the component in combination ([9]; 5 h, GarKS + MP1): 0.68 mg/L
MIC of the component in combination ([9]; 5 h, K1-EJ + GarKS): 1.6 mg/L
MIC of the component in combination ([9]; 5 h, K1-EJ + GarKS + MP1): 0.72 mg/L
MIC ([9]; 5 h): 12.5 mg/L
MIC of the component in combination ([9]; 24 h, GarKS + MP1): 6.3 mg/L
MIC of the component in combination ([9]; 24 h, K1-EJ + GarKS): 12 mg/L
MIC of the component in combination ([9]; 24 h, K1-EJ + GarKS + MP1): 1.6 mg/L
MIC ([9]; 24 h): 51 mg/L
MIC of the component in combination ([9]; 48 h, GarKS + MP1): 6.5 mg/L
MIC of the component in combination ([9]; 48 h, K1-EJ + GarKS): 24 mg/L
MIC of the component in combination ([9]; 48 h, K1-EJ + GarKS + MP1): 3.3 mg/L
MIC ([9]; 48 h): 100 mg/L
MIC of the component in combination ([10]; 5 h, GarKS + MP1): 0.73 mg/L
MIC of the component in combination ([10]; 5 h, K1-EJ + GarKS): 1.5 mg/L
MIC of the component in combination ([10]; 5 h, K1-EJ + GarKS + MP1): 0.68 mg/L
MIC ([10]; 5 h): 23.6 mg/L
MIC of the component in combination ([10]; 24 h, GarKS + MP1): 1.6 mg/L
MIC of the component in combination ([10]; 24 h, K1-EJ + GarKS): 12 mg/L
MIC of the component in combination ([10]; 24 h, K1-EJ + GarKS + MP1): 1.6 mg/L
MIC ([10]; 24 h): 49 mg/L
MIC of the component in combination ([10]; 48 h, GarKS + MP1): 3.1 mg/L
MIC of the component in combination ([10]; 48 h, K1-EJ + GarKS): 13 mg/L
MIC of the component in combination ([10]; 48 h, K1-EJ + GarKS + MP1): 5.8 mg/L
MIC ([10]; 48 h): 52 mg/L
MIC of the component in combination ([11]; 5 h, GarKS + MP1): 0.2 mg/L
MIC of the component in combination ([11]; 5 h, K1-EJ + GarKS): 1.7 mg/L
MIC of the component in combination ([11]; 5 h, K1-EJ + GarKS + MP1): 0.33 mg/L
MIC ([11]; 5 h): 12.5 mg/L
MIC of the component in combination ([11]; 24 h, GarKS + MP1): 0.73 mg/L
MIC of the component in combination ([11]; 24 h, K1-EJ + GarKS): 6.3 mg/L
MIC of the component in combination ([11]; 24 h, K1-EJ + GarKS + MP1): 0.78 mg/L
MIC ([11]; 24 h): 51 mg/L
MIC of the component in combination ([11]; 48 h, GarKS + MP1): 0.83 mg/L
MIC of the component in combination ([11]; 48 h, K1-EJ + GarKS): 12 mg/L
MIC of the component in combination ([11]; 48 h, K1-EJ + GarKS + MP1): 1.6 mg/L
MIC ([11]; 48 h): 51 mg/L
